Assay results taken from the supplement of paper PMC12042874.
± gives the uncertainty stated by the source.

Assay: amyloid nucleation score (Sup35N fusion, yeast selection) (log enrichment); library NNK1; higher = more nucleation; inactive = no reads after selection
Procedure, shortened: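 Libraries of peptides of 20 random codons fused to Sup35N were expressed in psi-negative yeast and induced 24 hours with 100 μM copper sulfate. Selection was 7 days at 30°C on medium lacking adenine and uracil, and plasmid inserts were Illumina-sequenced before and after selection. Nucleation score is the DiMSum log enrichment of output over input reads, centred on the mode score of non-aggregating sequences, and sequences with under 100 input reads were left out.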

Substance	amyloid nucleation score
HSLSFTNVVDTSLPLVLANF	-2.15 ± 2.4
HSNYFPKSLYVLGLFCSTVS	6.22 ± 0.065
HSRSCKSFLI	inactive
HSSDLRAFLTDTFSRFYRIG	0.911 ± 0.8
HSTLFGSKFWGKTQHNFDS	-0.151 ± 1.1
HSVNYTLSQVNGSGLVFRAF	2.41 ± 0.12
HTESRSSYGYVCPGYNLISF	0.2 ± 0.63
HTFHVL	inactive
HTFSRRTGAGGSAKLT	0.972 ± 0.6
HTKTLAFHIILTIILRCMFL	0.713 ± 0.34
HVCEGEVVR	-0.135 ± 0.37
HVGQAVSSCDSNLE	-0.365 ± 0.59
HVGRIPGEVYSLKFTGLGRY	-0.839 ± 0.95
HVHNYNFIFAVWIHP	5.87 ± 0.062
HVLMLNW	3.05 ± 0.084
HVNSRRVLSHFVFDCARIGT	0.592 ± 0.69
HVPSFRFFFRDNLI	0.385 ± 0.46
HVRSWI	1.76 ± 0.76
HVVFTKMCSNTTET	0.026 ± 0.49
HYAVGRARNLGCLDLSQ	0.064 ± 0.48
HYGAKCGGPRAWGRDTDR	0.156 ± 0.69
HYSNVKTGGKSGKWEIRDLE	-0.559 ± 0.35
IADPNRFFTLLNLPMQCREA	inactive
IAGRRPALYRVWNSRCSLLN	0.014 ± 0.49
IARLHT	inactive
IASFVEERLSEIPYLATLGL	-0.385 ± 0.46

Substance	amyloid nucleation score
IASVWFRCFHRNRLVWSLRR	0.214 ± 0.44
IAVFWCFKMNWALMMRTKDM	0.13 ± 0.38
IAVKQFSRPPVFYIYSSLEC	0.642 ± 0.62
IAYKPLTWSSWEGSISIIRV	0.149 ± 0.4
IAYNDSYMVKYCVREVLMDE	4.29 ± 0.13
ICFFGCQGGGPRLRQDRCRT	-0.53 ± 0.63
ICITYL	2.56 ± 0.12
ICSRTVKFYSSSF	-2.03 ± 2.4
ICTSSTKGRLCRSCPLASRL	0.205 ± 0.38
ICVCKDVCGLYRCLLGTGGS	1.13 ± 0.57
ICYIPADFVKPAMVNLYLAM	2.99 ± 0.11
IDFKGTKKLLSDRAPVGDST	0.549 ± 1
IDMGSGTNFSTCKCATLIMI	inactive
IDVFEITSKSFAARGAQFVH	-1.97 ± 1.3
IEIKTIFVSFLFCECKFCGY	5.63 ± 0.057
IESMVYITPCIEGIRWNWEK	0.122 ± 0.36
IETWCVKWFH	-0.299 ± 0.32
IFATTIFLLGTRTKLMSG	0.971 ± 0.65
IFFSCQVGYSAIARDARWTR	2.04 ± 0.14
IFGTHFGTCFSGHAEEDTGE	0.724 ± 0.83
IFLIMKNRTSILRPTGFLVS	-0.402 ± 0.49
IFLNKRSTSAWFSMLLLFLS	1.4 ± 0.14
IFRMAPKQCPSLWVASPHWI	0.743 ± 0.55
IFSFNMQDN	-0.363 ± 1.2
IFSLCSVLSSNIEECPS	-0.257 ± 0.8
IFVVMQTIFMWLDSWADQSL	0.391 ± 0.35

Substance	amyloid nucleation score
IFYIYLRGLVMIVRRSMVIR	inactive
IFYSLQLVTARSTEVMGDTP	1.1 ± 0.88
IGACLRQSLVISYDVIFMLL	inactive
IGACVMQVNLCQSSGVSSYL	5.72 ± 0.062
IGCKCDIFVCNCISVCYVGA	4.3 ± 0.16
IGDKYGYCKYGRYADGQVIS	inactive
IGDNVNGSLLEIW	-0.528 ± 0.32
IGENCRWRMSSRCGFNGNDT	-0.37 ± 0.43
IGFHSMDFEQYFCYFSVKTK	0.616 ± 0.75
IGFML	1.69 ± 0.32
IGGFASLGYGYIRDVIRVTS	0.493 ± 0.45
IGGHRYGVDKY	-0.194 ± 0.72
IGKSCFIFVTG	0.56 ± 0.43
IGLFWSFVKKIEVIICVGML	0.665 ± 0.9
IGQLHFIEITNMREGHPFLA	0.53 ± 0.63
IGYSGYY	-0.296 ± 0.41
IHLIDLTRVSAG	0.627 ± 0.63
IHNNRVGVYCILNNTQRVE	0.2 ± 0.61
IIEIFVDIRYHFMY	1.91 ± 0.38
IIIEVSQTDTV	-0.292 ± 0.79
IINRNYI	1.1 ± 0.84
IINVLC	3.73 ± 0.056
IIVGVVNTRDYLYCRNFVYI	2.79 ± 0.1
IKDTGYYLHMIEQPDTLNLW	0.651 ± 0.53
IKTAFMVMNNGKDVMSRSWG	0.402 ± 0.4
IKTNHKDNLWNNFNLYDKAH	0.233 ± 0.31

Substance	amyloid nucleation score
IKWWKLCGVVRIGNNCLRYL	0.64 ± 0.72
IKWYAY	0.952 ± 0.68
ILCALMRFLVETLHLINFWK	-0.278 ± 0.61
ILEVCRHRVIIIRNYLSYCA	2.8 ± 0.24
ILFFDVSSQGRTEDKVRNLG	0.088 ± 0.69
ILFRVVSRVGISRYGWKRVL	-0.241 ± 0.83
ILHWEKRDSTVKILSLSIHW	0.385 ± 0.46
ILIGRPQYIDRYMSSCVIIL	inactive
ILKDVFIITVISSCSITSKL	2.37 ± 0.18
ILLMSSGEDYSHTGAP	-0.06 ± 0.76
ILLRLGDVVRIGLVFVTSFG	0.421 ± 0.61
ILMLKH	-0.484 ± 0.68
ILNGFTRYLR	-0.12 ± 0.36
ILSDVDVCGYLRFMFWSMSD	1.58 ± 0.49
ILSFMYYDTHAPLKFAVQVK	0.296 ± 0.45
ILSLNCFYRTWRLEMNKSYK	1.94 ± 0.52
ILSLS	0.038 ± 0.18
ILSWSNSGRMNHRPLVYERS	0.963 ± 0.43
ILTDTSMGTSAVHRARQTLK	0.066 ± 0.48
ILTRVV	0.37 ± 1.1
ILVGTWSLGSRAVEGNNWDH	-0.357 ± 0.49
ILVSQCRRLVYFVGSVCFST	0.622 ± 0.53
ILWLFSGAWLYYSVLYCL	-0.076 ± 0.51
ILWPGWDYTKKIVFSCLMVI	-0.613 ± 0.29
ILYVNNFIFLH	7.59 ± 0.056
IMFTWWEYRLRSLEV	-0.334 ± 0.48

Substance	amyloid nucleation score
IMLNLFHYGSSLQQFKTHH	7.325 ± 0.054
IMVTDKLSTCAETYIDISW	-0.164 ± 0.75
IMWLLLPRYDLFFRLMYTAS	0.617 ± 0.46
INETLYRTFSRL	-0.471 ± 0.56
INLTNIHFCHVNFVVGALKP	5.98 ± 0.079
INSQSTATN	0.593 ± 0.31
IPVWTYIVWAQESILQRGCW	0.217 ± 0.46
IQLYIYCNMWKVGGKEWRAW	5.78 ± 0.087
IQNISLGVVGVMWNPHTCVV	-0.708 ± 0.66
IQSLVFRGKRVTHTKQSLTL	0.262 ± 0.36
IQTCCHIQVELV	3.79 ± 0.088
IRELRSDFSGSMVDERFLGE	0.489 ± 1.1
IRFFKCLTCVSDCGN	inactive
IRGLLRFL	0.007 ± 0.35
IRIWSSREGFASIVWTCLMG	-0.32 ± 0.54
IRKFLFLFNALLSAPLLFHK	-0.2 ± 1.1
IRLTILLSKVDTDE	0.885 ± 0.42
IRMGCNVHREEVSFTVLAVH	0.409 ± 0.66
IRMVFAMVSYSCDYRATAGT	2.65 ± 0.18
IRQQFKCYGEFCATM	-0.587 ± 1.2
IRSLITMVGTGLGPLAR	0.876 ± 0.4
ISCKWYNHISSRLNFMWHAK	0.394 ± 0.88
